# Data reported in the Immune Epitope Database (IEDB).
# Legend:
# Settings in all cases: source organism: Influenza A virus
# [1] = target: HLA-A*68:02; assay: IEDB peptide-MHC binding, purified MHC/competitive/radioactivity; ≥ and ≤ were set here for values at or beyond the usual limits of such assays
# [2] = target: HLA-A*02:03; assay: as above
# [3] = target: HLA-A*02:02; assay: as above
# [4] = target: HLA-A*02:06; assay: as above
# [5] = target: HLA-A*01:01; assay: IEDB peptide-MHC binding, purified MHC/competitive/fluorescence; ≥ and ≤ were set here for values at or beyond the usual limits of such assays
# [6] = target: HLA-A*30:02; assay: IEDB peptide-MHC binding, purified MHC/competitive/radioactivity; ≥ and ≤ were set here for values at or beyond the usual limits of such assays
# [7] = target: HLA-A*26:01; assay: as above
# [8] = target: HLA-A*29:02; assay: as above
# [9] = target: HLA-A*02:01; assay: as above
# [10] = target: HLA-B*18:01; assay: IEDB peptide-MHC binding, purified MHC/competitive/fluorescence; ≥ and ≤ were set here for values at or beyond the usual limits of such assays
# [11] = target: HLA-B*44:03; assay: IEDB peptide-MHC binding, purified MHC/competitive/radioactivity; ≥ and ≤ were set here for values at or beyond the usual limits of such assays
# [12] = target: HLA-B*45:01; assay: as above
# [13] = target: HLA-B*40:01; assay: as above
# [14] = target: HLA-B*40:02; assay: as above
# [15] = target: HLA-B*44:02; assay: as above
# [16] = target: HLA-A*68:02; assay: IEDB peptide-MHC binding, purified MHC/competitive/fluorescence; ≥ and ≤ were set here for values at or beyond the usual limits of such assays
# [17] = target: HLA-A*02:01; assay: as above
# [18] = target: HLA-A*02:06; assay: as above
# [19] = target: HLA-B*44:03; assay: as above
# [20] = target: HLA-B*40:01; assay: as above
# [21] = target: HLA-B*44:02; assay: as above
# [22] = target: HLA-A*02:02; assay: as above
# [23] = target: HLA-B*40:02; assay: as above
# [24] = target: HLA-B*18:01; assay: IEDB peptide-MHC binding, purified MHC/competitive/radioactivity; ≥ and ≤ were set here for values at or beyond the usual limits of such assays
# [25] = target: HLA-A*02:03; assay: IEDB peptide-MHC binding, purified MHC/competitive/fluorescence; ≥ and ≤ were set here for values at or beyond the usual limits of such assays
# [26] = target: HLA-A*24:02; assay: IEDB peptide-MHC binding, purified MHC/competitive/radioactivity; ≥ and ≤ were set here for values at or beyond the usual limits of such assays
# [27] = target: HLA-A*23:01; assay: as above
# [28] = target: HLA-B*45:01; assay: IEDB peptide-MHC binding, purified MHC/competitive/fluorescence; ≥ and ≤ were set here for values at or beyond the usual limits of such assays
# [29] = target: HLA-A*68:01; assay: as above
# [30] = target: HLA-A*31:01; assay: as above
# [31] = target: HLA-A*03:01; assay: IEDB peptide-MHC binding, purified MHC/competitive/radioactivity; ≥ and ≤ were set here for values at or beyond the usual limits of such assays
# [32] = target: HLA-A*11:01; assay: as above
# [33] = target: HLA-A*31:01; assay: as above
# [34] = target: HLA-A*30:02; assay: IEDB peptide-MHC binding, purified MHC/competitive/fluorescence; ≥ and ≤ were set here for values at or beyond the usual limits of such assays
# [35] = target: HLA-A*26:01; assay: as above
# [36] = target: HLA-A*01:01; assay: IEDB peptide-MHC binding, purified MHC/competitive/radioactivity; ≥ and ≤ were set here for values at or beyond the usual limits of such assays
# [37] = target: HLA-A*68:01; assay: as above
# [38] = target: HLA-A*33:01; assay: as above
# [39] = target: HLA-A*29:02; assay: IEDB peptide-MHC binding, purified MHC/competitive/fluorescence; ≥ and ≤ were set here for values at or beyond the usual limits of such assays
# [40] = target: HLA-A*03:01; assay: as above
# [41] = target: HLA-A*11:01; assay: as above
# [42] = target: HLA-A*33:01; assay: as above
sequence,measurement,setting,value
FVEALARSI,IC50,[1],984 nM
same,IC50,[2],457 nM
same,IC50,[3],35 nM
same,IC50,[4],668 nM
TFEFTSFFY,IC50,[5],12 µM
same,IC50,[6],422 nM
same,IC50,[7],399 nM
same,IC50,[8],0.1 nM
FNMLSTVLGV,IC50,[9],15 nM
AESRKLLLI,IC50,[10],33.1 µM
same,IC50,[11],179 nM
same,IC50,[12],167 nM
same,IC50,[13],535 nM
same,IC50,[14],220 nM
same,IC50,[15],55 nM
ILSPLTKGIL,IC50,[16],13.3 µM
same,IC50,[17],10.5 µM
same,IC50,[18],26 µM
same,IC50,[2],129 nM
same,IC50,[3],159 nM
AEIMKICST,IC50,[19],11.7 µM
same,IC50,[10],28.2 µM
same,IC50,[20],34.2 µM
same,IC50,[21],5.12 µM
same,IC50,[12],139 nM
same,IC50,[14],13 nM
QLVWMACHSAA,IC50,[16],21.5 µM
same,IC50,[22],2740 nM
same,IC50,[2],354 nM
FEDLRVSSF,IC50,[19],8.99 µM
same,IC50,[20],13 µM
same,IC50,[23],1320 nM
same,IC50,[24],59 nM
same,IC50,[15],396 nM
CELTDSSWI,IC50,[10],56.8 µM
same,IC50,[23],1410 nM
same,IC50,[11],163 nM
same,IC50,[12],139 nM
same,IC50,[13],888 nM
same,IC50,[15],35 nM
QLMWALGENMA,IC50,[16],2.27 µM
same,IC50,[25],1350 nM
same,IC50,[18],24.4 µM
same,IC50,[3],357 nM
LYRKLKREITF,IC50,[26],206 nM
same,IC50,[27],195 nM
YERMCNILKG,IC50,[19],3 µM
same,IC50,[28],19.8 µM
same,IC50,[20],2.22 µM
same,IC50,[21],1.86 µM
same,IC50,[24],711 nM
same,IC50,[14],143 nM
LLFLKVPA,IC50,[16],23 µM
same,IC50,[18],13.3 µM
same,IC50,[2],279 nM
same,IC50,[3],133 nM
TLARSICEK,IC50,[29],1460 nM
same,IC50,[30],8.12 µM
same,IC50,[31],127 nM
same,IC50,[32],276 nM
KTRPILSPLTK,IC50,[31],96 nM
same,IC50,[33],70 nM
ITFMQALQLL,IC50,[18],8.18 µM
same,IC50,[1],759 nM
same,IC50,[2],856 nM
same,IC50,[3],125 nM
ALQLLLEV,IC50,[22],1440 nM
same,IC50,[18],2.2 µM
same,IC50,[9],662 nM
same,IC50,[2],256 nM
ALASCMGLIY,IC50,[34],2520 nM
same,IC50,[35],2.18 µM
same,IC50,[36],998 nM
same,IC50,[8],12 nM
QIAILVTTV,IC50,[16],2.22 µM
same,IC50,[2],73 nM
same,IC50,[3],150 nM
same,IC50,[4],691 nM
SWPDGAELPF,IC50,[26],778 nM
same,IC50,[27],469 nM
CEKLEQSGL,IC50,[19],2.96 µM
same,IC50,[10],43.1 µM
same,IC50,[20],1.49 µM
same,IC50,[12],359 nM
same,IC50,[14],164 nM
same,IC50,[15],154 nM
FSMELPSFGV,IC50,[9],9.5 nM
RTMAWTVVNSI,IC50,[16],1.52 µM
same,IC50,[18],4.51 µM
same,IC50,[2],70 nM
same,IC50,[3],126 nM
SFSFGGFTFK,IC50,[31],188 nM
same,IC50,[32],160 nM
same,IC50,[37],427 nM
same,IC50,[33],82 nM
same,IC50,[38],168 nM
ILGFVFTL,IC50,[2],11 nM
same,IC50,[3],2.6 nM
same,IC50,[4],319 nM
VSDGGPNLY,IC50,[34],2210 nM
same,IC50,[35],25.7 µM
same,IC50,[39],2120 nM
GLIYNRMGA,IC50,[22],6560 nM
same,IC50,[18],25.6 µM
same,IC50,[2],273 nM
RMVLSAFDER,IC50,[40],5.84 µM
same,IC50,[41],2240 nM
same,IC50,[37],631 nM
same,IC50,[33],336 nM
same,IC50,[38],897 nM
FESKSMKL,IC50,[19],66.4 µM
same,IC50,[28],53.7 µM
same,IC50,[10],2.5 µM
same,IC50,[20],1.23 µM
same,IC50,[21],23.6 µM
same,IC50,[14],212 nM
AEKPKFLPDLY,IC50,[28],2.93 µM
same,IC50,[10],34.7 µM
same,IC50,[20],10.9 µM
same,IC50,[23],4780 nM
same,IC50,[11],1440 nM
same,IC50,[15],412 nM
RMVLASTTAK,IC50,[42],5.88 µM
